Laboratory results published in patent US6716816.
Where no end group is shown, it is not given here. [ ]: non-standard residue; d: D form. Aib = CC(C)(N)C(=O)O

Target: T1, lecithin:cholesterol acyltransferase (LCAT), purified from human plasma (human, UniProt P04180 25-440)
T1 sequence (looked up): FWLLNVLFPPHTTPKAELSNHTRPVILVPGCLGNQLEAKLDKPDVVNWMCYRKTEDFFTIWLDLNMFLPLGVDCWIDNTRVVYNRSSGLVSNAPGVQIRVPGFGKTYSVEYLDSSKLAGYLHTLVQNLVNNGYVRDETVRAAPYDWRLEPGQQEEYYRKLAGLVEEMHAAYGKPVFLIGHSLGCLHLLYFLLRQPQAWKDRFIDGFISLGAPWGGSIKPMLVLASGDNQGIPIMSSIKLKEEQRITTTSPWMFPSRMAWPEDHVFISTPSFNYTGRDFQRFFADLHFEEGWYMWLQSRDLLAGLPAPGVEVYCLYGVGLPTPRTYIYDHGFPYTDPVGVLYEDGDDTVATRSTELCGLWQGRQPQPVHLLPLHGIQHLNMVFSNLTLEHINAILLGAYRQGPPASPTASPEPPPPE
Experiment: cell-based or functional assay

B1: peptide 78 (peptide)
peptide: PVLDEFRDKLNE[Aib]LEALKQKLK
  ACTIVITY (%) LCAT: 9%
